The record followed here is patent US20210393713A1 (published 2021).

In the test the target is AAV-PHP.B capsid (AAV9 variant with the […] insert). Description: SPR. For orientation: SPR reads the build-up and loss of mass on a sensor chip optically.

B1: LY6A as used in SPR (immobilized on the sensor chip, or monomeric in solution) (receptor)
chain: LECYQCYGVPFETSCPSITCPYPDGVCVTQEAAVIVDSQTRKVKNNLCLPICPPNIESMEILGTKVNVKTSCCQEDLCNVAVPNG
Broadly, the Kd is a measure of binding affinity in units of concentration. High values mean weaker binding, low ones tighter binding. B1: the Kd worked out at 0.119 nM.
